Measured values from PMC2172684 (The Journal of Cell Biology, 2003).

T1: GST-tagged Nup153 (895–1475) ( (mammalian), UniProt P49790 895-1475)
T1 sequence (looked up): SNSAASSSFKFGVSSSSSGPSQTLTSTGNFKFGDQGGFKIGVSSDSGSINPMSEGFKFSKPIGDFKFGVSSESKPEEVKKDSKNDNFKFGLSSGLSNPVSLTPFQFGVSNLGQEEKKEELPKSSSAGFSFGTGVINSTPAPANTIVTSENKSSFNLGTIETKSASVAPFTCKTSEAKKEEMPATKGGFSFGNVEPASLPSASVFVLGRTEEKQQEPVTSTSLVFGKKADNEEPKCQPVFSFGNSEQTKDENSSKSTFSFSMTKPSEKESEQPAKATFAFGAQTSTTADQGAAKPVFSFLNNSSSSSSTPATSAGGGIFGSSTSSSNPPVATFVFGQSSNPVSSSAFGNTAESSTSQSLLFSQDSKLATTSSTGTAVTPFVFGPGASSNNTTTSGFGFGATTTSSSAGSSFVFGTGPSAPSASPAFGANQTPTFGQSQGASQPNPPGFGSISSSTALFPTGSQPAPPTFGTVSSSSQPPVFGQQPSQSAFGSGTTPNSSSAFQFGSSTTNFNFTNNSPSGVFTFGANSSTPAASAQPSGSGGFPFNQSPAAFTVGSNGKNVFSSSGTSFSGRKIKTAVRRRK

B1: importin β (1–396) (domain or fragment, human, UniProt Q14974 1-396, looked up)
chain: MELITILEKTVSPDRLELEAAQKFLERAAVENLPTFLVELSRVLANPGNSQVARVAAGLQIKNSLTSKDPDIKAQYQQRWLAIDANARREVKNYVLQTLGTETYRPSSASQCVAGIACAEIPVNQWPELIPQLVANVTNPNSTEHMKESTLEAIGYICQDIDPEQLQDKSNEILTAIIQGMRKEEPSNNVKLAATNALLNSLEFTKANFDKESERHFIMQVVCEATQCPDTRVRVAALQNLVKIMSLYYQYMETYMGPALFAITIEAMKSDIDEVALQGIEFWSNVCDEEMDLAIEASEAAEQGRPPEHTSKFYAKGALQYLVPILTQTLTKQDENDDDDDWNPCKAAGVCLMLLATCCEDDIVPHVLPFIKEHIKNPDWRYRDAAVMAFGCILEG
B2: importin β m-N (1–396) (domain or fragment, human, UniProt Q14974 1-396, looked up)
chain: MELITILEKTVSPDRLELEAAQKFLERAAVENLPTFLVELSRVLANPGNSQVARVAAGLQIKNSLTSKDPDIKAQYQQRWLAIDANARREVKNYVLQTLGTETYRPSSASQCVAGIACAEIPVNQWPELIPQLVANVTNPNSTEHMKESTLEAIGYICQDIDPEQLQDKSNEILTAIAQGMRKEEPSNNVKLAATNALLNSLEFTKANFDKESERHAIMQVVCEATQCPDTRVRVAALQNLVKIMSLYYQYMETAMGPALFARTIEAMKSDIDEVALQGIEFWSNVCDEEMDLAIEASEAAEQGRPPEHTSKFYAKGALQYLVPILTQTLTKQDENDDDDDWNPCKAAGVCLMLLATCCEDDIVPHVLPFIKEHIKNPDWRYRDAAVMAFGCILEG
B3: importin β (304–876) (domain or fragment, human, UniProt Q14974 304-876, looked up)
chain: GRPPEHTSKFYAKGALQYLVPILTQTLTKQDENDDDDDWNPCKAAGVCLMLLATCCEDDIVPHVLPFIKEHIKNPDWRYRDAAVMAFGCILEGPEPSQLKPLVIQAMPTLIELMKDPSVVVRDTAAWTVGRICELLPEAAINDVYLAPLLQCLIEGLSAEPRVASNVCWAFSSLAEAAYEAADVADDQEEPATYCLSSSFELIVQKLLETTDRPDGHQNNLRSSAYESLMEIVKNSAKDCYPAVQKTTLVIMERLQQVLQMESHIQSTSDRIQFNDLQSLLCATLQNVLRKVQHQDALQISDVVMASLLRMFQSTAGSGGVQEDALMAVSTLVEVLGGEFLKYMEAFKPFLGIGLKNYAEYQVCLAAVGLVGDLCRALQSNIIPFCDEVMQLLLENLGNENVHRSVKPQILSVFGDIALAIGGEFKKYLEVVLNTLQQASQAQVDKSDYDMVDYLNELRESCLEAYTGIVQGLKGDQENVHPDVMLVQPRVEFILSFIDHIAGDEDHTDGVVACAAGLIGDLCTAFGKDVLKLVEARPMIHELLTEGRRSKTNKAKTLATWATKELRKLKNQA

target: T1, GST-tagged Nup153 (895–1475); assay: ELISA

Binder	Kd [nM]
B1	1.2 ± 0.1
B2	160 ± 25.3
B3	152 ± 17.5
